Measurements: patent EP1644415B1 (Genetics Institute, LLC, dated 2010)
Blank lines part the entries; values can stand above or below the binder they belong to.

B1: human IL-22 binding protein-Fc fusion (Fc fusion)
chain: TQSTHESLKPQRVQFQSRNFHNILQWQPGRALTGNSSVYFVQYKIYGQRQWKNKEDCWGTQELSCDLTSETSDIQEPYYGRVRAASAGSYSEWSMTPRFTPWWETKIDPPVMNITQVNGSLLVILHAPNLPYRYQKEKNVSIEDYYELLYRVFIINNSLEKEQKVYEGAHRAVEIEALTPHSSYCVVAEIYQPMLDRRSQRSEERCVEIPAGSGSGSG
notes: Fc fusion homodimer, used as CHO conditioned medium; also called IL-22BP-Fc; hIL-22BP-Fc; not shown: human IgG1 Fc
B3: human IL-22R extracellular domain-Fc fusion homodimer (Fc fusion)
chain: HAPEDPSDLLQHVKFQSSNFENILTWDSGPEGTPDTVYSIEYKTYGERDWVAKKGCQRITRKSCNLTVETGNLTELYYARVTAVSAGGRSATKMTDRFSSLQHTTLKPPDVTCISKVRSIQMIVHPTPTPIRAGDGHRLTLEDIFHDLFYHLELQVNRTYQMHLGGKQREYEFFGLTPDTEFLGTIMICVPTWAKESAPYMCRVKTLPDRTWTAGSGSGSG
notes: extracellular domain; Used as CHO conditioned medium, not purified; also called IL-22R-Fc; IL-22RECD-Fc; not shown: human IgG1 Fc
B4: human IL-22 with N terminal His/Flag tag (ligand)
chain: GSGHHHHHHGSGDYKDDDDKAPISSHCRLDKSNFQQPYITNRTFMLAKEASLADNNTDVRLIGEKLFHGVSMSERCYLMKQVLNFTLEEVLFPQSDRFQPYMQEVVPFLARLSNRLSTCHIEGDDLHIQRNVQKLKDTVKKLGESGEIKAIGELDLLFMSLRNACI
modifications: biotinylated with EZ-Link Sulfo-NHS-Biotin where used in ELISA (bio-IL-22); not biotinylated in Biacore and cell assays
notes: Made in CHO cells, extensively glycosylated; also called hIL-22; huIL-22

What was measured:
[1] = biological target: B4; assay: competition ELISA: IL-22BP-Fc pre-incubated with bio-IL-22 30 ng/ml, binding to captured IL-22R-Fc (Figure 11A)
[2] = biological target: B4; assay: competition ELISA: IL-22BP-Fc pre-incubated with bio-IL-22 5 ng/ml, binding to captured IL-22R/IL-10R2-Fc heterodimer (Figure 11B)
[3] = biological target: B3; assay: ELISA, IL-10R2-Fc added to captured IL-22R-Fc before bio-IL-22 (Figure 9A)
[4] = biological target: B4; assay: ELISA, bio-IL-22 on streptavidin plates, IL-22R-Fc titrated (Figure 6B)
[5] = biological target: T1, human IL-22R-Fc/IL-10R2-Fc heterodimer (human, UniProt Q8N6P7 16-228; Q08334 20-220); assay: ELISA, 50 ng/ml total Fc of co-expressing CHO CM captured, bio-IL-22 5 ng/ml, no antibody (Figure 10C)
T1 construct: extracellular domain; Used as conditioned medium of CHO cells co-expressing both fusions; also called IL-22R/IL-10R2-Fc heterodimer; IL-22R-Fc/IL-10R2-Fc complex; not shown: human IgG1 Fc
T1 sequence 1: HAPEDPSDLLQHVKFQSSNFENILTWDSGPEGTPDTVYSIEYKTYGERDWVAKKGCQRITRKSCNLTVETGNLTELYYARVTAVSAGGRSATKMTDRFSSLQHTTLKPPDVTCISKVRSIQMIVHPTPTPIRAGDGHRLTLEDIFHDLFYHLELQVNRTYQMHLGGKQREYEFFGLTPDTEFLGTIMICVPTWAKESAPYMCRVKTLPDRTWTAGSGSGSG
T1 sequence 2: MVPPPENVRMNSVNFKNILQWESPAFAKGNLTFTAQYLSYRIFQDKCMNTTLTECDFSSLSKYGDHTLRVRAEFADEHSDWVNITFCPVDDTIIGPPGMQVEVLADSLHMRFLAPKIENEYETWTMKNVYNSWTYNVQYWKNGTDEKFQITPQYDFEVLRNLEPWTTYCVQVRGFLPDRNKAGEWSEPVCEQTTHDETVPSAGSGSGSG

[6] = biological target: T1, human IL-22R-Fc/IL-10R2-Fc heterodimer; assay: ELISA, 50 ng/ml total Fc captured on anti-human IgG, bio-IL-22 titrated (Figure 8A)
[7] = biological target: T1, human IL-22R-Fc/IL-10R2-Fc heterodimer; assay: Biacore, receptor-Fc from conditioned medium captured by anti-human IgG, IL-22 injected, 1:1 model
[8] = biological target: B3; assay: as above
[9] = biological target: B1; assay: Biacore, IL-22BP-Fc from conditioned medium captured by anti-human IgG, IL-22 injected, 1:1 model
[10] = biological target: B3; assay: ELISA, IL-22R-Fc captured on anti-human IgG, bio-IL-22 titrated (Figure 6A)

Binder: B1
IC50 [1]: 4 nM
IC50 [2]: 2 nM

binding result [3]: no binding
B2: human IL-10R2 extracellular domain-Fc fusion homodimer (Fc fusion)
chain: MVPPPENVRMNSVNFKNILQWESPAFAKGNLTFTAQYLSYRIFQDKCMNTTLTECDFSSLSKYGDHTLRVRAEFADEHSDWVNITFCPVDDTIIGPPGMQVEVLADSLHMRFLAPKIENEYETWTMKNVYNSWTYNVQYWKNGTDEKFQITPQYDFEVLRNLEPWTTYCVQVRGFLPDRNKAGEWSEPVCEQTTHDETVPSAGSGSGSG
notes: extracellular domain; Used as CHO conditioned medium, not purified; also called IL-10R2-Fc; IL-10R2ECD-Fc; not shown: human IgG1 Fc

Binder: B3
EC50 [4]: 0.006 µg/mL

Binder: B4
ELISA signal (absorbance at 450 nm) [5]: 2.5
fold less bio-IL-22 needed for a comparable signal than with immobilized IL-22R-Fc homodimer [6]: 8 fold
Kd [7]: 1.48 nM
Kd [8]: 41 nM
Kd [9]: 3.37 nM
EC50 [10]: 0.02 µg/mL
